Test results reported in patent US20260098059A1 (ENDOMET BIOSCIENCES, published 2026).
Several values for one entry are separate records, joined by “and”; a condition that tells them apart may be missing. Equal values may be shown once. Bridges are numbered along the chain shown (N, C = ends). Where no end group is shown, it is not given here. [ ]: non-standard residue; d: D form. The star is where a group is joined. Palmitoyl = CCCCCCCCCCCCCCCC(=O)*; Chg = N[C@H](C(=O)O)C1CCCCC1; NMeA = CN[C@@H](C)C(=O)O

T1: β-catenin (UniProt P35222 134-665, limits assumed, biotinylated in the SPR and plate assays)
T1 construct: also called beta catenin; biotinylated β-catenin
T1 sequence (looked up): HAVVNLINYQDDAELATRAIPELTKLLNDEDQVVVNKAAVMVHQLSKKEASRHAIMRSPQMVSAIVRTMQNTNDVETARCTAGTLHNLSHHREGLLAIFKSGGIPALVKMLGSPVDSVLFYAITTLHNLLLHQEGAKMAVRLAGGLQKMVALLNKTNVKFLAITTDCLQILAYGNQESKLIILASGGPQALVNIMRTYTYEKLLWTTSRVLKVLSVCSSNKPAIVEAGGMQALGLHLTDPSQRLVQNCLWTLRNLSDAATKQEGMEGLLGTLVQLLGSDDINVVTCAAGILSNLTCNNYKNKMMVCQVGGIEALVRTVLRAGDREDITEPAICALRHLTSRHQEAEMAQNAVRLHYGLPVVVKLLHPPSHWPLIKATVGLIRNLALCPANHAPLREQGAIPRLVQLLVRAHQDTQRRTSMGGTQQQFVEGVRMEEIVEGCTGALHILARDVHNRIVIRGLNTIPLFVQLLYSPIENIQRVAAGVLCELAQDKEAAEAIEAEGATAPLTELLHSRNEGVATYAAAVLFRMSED

B1: SEQ ID NO: 240 (peptide)
peptide: MWILISFW
HELM: PEPTIDE1{[ac].M.W.I.L.I.S.F.W.[O=C(O)CCCN[*:1]]}$$$$V2.0
SMILES: CC[C@H](C)[C@H](NC(=O)[C@H](CC(C)C)NC(=O)[C@@H](NC(=O)[C@H](Cc1c[nH]c2ccccc12)NC(=O)[C@H](CCSC)NC(C)=O)[C@@H](C)CC)C(=O)N[C@@H](CO)C(=O)N[C@@H](Cc1ccccc1)C(=O)N[C@@H](Cc1c[nH]c2ccccc12)C(=O)NCCCC(=O)O
B2: SEQ ID NO: 415 (peptide)
peptide: WAQKILDEHGSRVWG
HELM: PEPTIDE1{W.[meA].Q.K.I.L.D.E.H.[O=C([C@@H](N[*:1])C1CCCCC1)[*:2]].S.R.V.W.G.[am]}$PEPTIDE1,PEPTIDE1,4:R3-8:R3$$$V2.0
SMILES: CC[C@H](C)[C@@H]1NC(=O)[C@@H](NC(=O)[C@H](CCC(N)=O)NC(=O)[C@H](C)N(C)C(=O)[C@@H](N)Cc2c[nH]c3ccccc23)CCCCNC(=O)CC[C@@H](C(=O)N[C@@H](Cc2c[nH]cn2)C(=O)N[C@H](C(=O)N[C@@H](CO)C(=O)N[C@@H](CCCNC(=N)N)C(=O)N[C@H](C(=O)N[C@@H](Cc2c[nH]c3ccccc23)C(=O)NCC(N)=O)C(C)C)C2CCCCC2)NC(=O)[C@H](CC(=O)O)NC(=O)[C@H](CC(C)C)NC1=O
B3: SEQ ID NO: 420 (peptide)
peptide: WAQKGLDEHVQRVWG
HELM: PEPTIDE1{W.[meA].Q.K.[O=C([C@@H](N[*:1])C1CCCCC1)[*:2]].L.D.E.H.V.Q.R.V.W.G.[am]}$PEPTIDE1,PEPTIDE1,4:R3-8:R3$$$V2.0
SMILES: CC(C)C[C@@H]1NC(=O)[C@H](C2CCCCC2)NC(=O)[C@@H](NC(=O)[C@H](CCC(N)=O)NC(=O)[C@H](C)N(C)C(=O)[C@@H](N)Cc2c[nH]c3ccccc23)CCCCNC(=O)CC[C@@H](C(=O)N[C@@H](Cc2c[nH]cn2)C(=O)N[C@H](C(=O)N[C@@H](CCC(N)=O)C(=O)N[C@@H](CCCNC(=N)N)C(=O)N[C@H](C(=O)N[C@@H](Cc2c[nH]c3ccccc23)C(=O)NCC(N)=O)C(C)C)C(C)C)NC(=O)[C@H](CC(=O)O)NC1=O
B4: SEQ ID NO: 416 (peptide)
peptide: WAQKILDEHGSRVWG
HELM: PEPTIDE1{[ac].W.[meA].Q.K.I.L.D.E.H.[O=C([C@@H](N[*:1])C1CCCCC1)[*:2]].S.R.V.W.G.[am]}$PEPTIDE1,PEPTIDE1,5:R3-9:R3$$$V2.0
SMILES: CC[C@H](C)[C@@H]1NC(=O)[C@@H](NC(=O)[C@H](CCC(N)=O)NC(=O)[C@H](C)N(C)C(=O)[C@H](Cc2c[nH]c3ccccc23)NC(C)=O)CCCCNC(=O)CC[C@@H](C(=O)N[C@@H](Cc2c[nH]cn2)C(=O)N[C@H](C(=O)N[C@@H](CO)C(=O)N[C@@H](CCCNC(=N)N)C(=O)N[C@H](C(=O)N[C@@H](Cc2c[nH]c3ccccc23)C(=O)NCC(N)=O)C(C)C)C2CCCCC2)NC(=O)[C@H](CC(=O)O)NC(=O)[C@H](CC(C)C)NC1=O
B5: SEQ ID NO: 243 (peptide)
peptide: KWFLIXAWD
HELM: PEPTIDE1{[ac].K.W.F.L.I.[Abu].A.W.D}$PEPTIDE1,PEPTIDE1,2:R3-10:R3$$$V2.0
SMILES: CC[C@@H]1NC(=O)[C@H]([C@@H](C)CC)NC(=O)[C@H](CC(C)C)NC(=O)[C@H](Cc2ccccc2)NC(=O)[C@H](Cc2c[nH]c3ccccc23)NC(=O)[C@@H](NC(C)=O)CCCCNC(=O)C[C@@H](C(=O)O)NC(=O)[C@H](Cc2c[nH]c3ccccc23)NC(=O)[C@H](C)NC1=O
B6: SEQ ID NO: 456 (peptide)
peptide: WXQKILNDHGQRVW
HELM: PEPTIDE1{[CCCCCCCCCCCC(=O)[*:2]].W.[Aib].Q.K.I.L.N.D.H.[O=C([C@@H](N[*:1])C1CCCCC1)[*:2]].Q.R.V.W.[am]}$PEPTIDE1,PEPTIDE1,5:R3-9:R3$$$V2.0
SMILES: CCCCCCCCCCCC(=O)N[C@@H](Cc1c[nH]c2ccccc12)C(=O)NC(C)(C)C(=O)N[C@@H](CCC(N)=O)C(=O)N[C@H]1CCCCNC(=O)C[C@@H](C(=O)N[C@@H](Cc2c[nH]cn2)C(=O)N[C@H](C(=O)N[C@@H](CCC(N)=O)C(=O)N[C@@H](CCCNC(=N)N)C(=O)N[C@H](C(=O)N[C@@H](Cc2c[nH]c3ccccc23)C(N)=O)C(C)C)C2CCCCC2)NC(=O)[C@H](CC(N)=O)NC(=O)[C@H](CC(C)C)NC(=O)[C@H]([C@@H](C)CC)NC1=O
B7: SEQ ID NO: 486 (peptide)
peptide: PQKILDEHVQRVMK-NH2
modifications: bridge 3-7; not fully specified (N-terminus); printed as H23C11C(O)-PQK*ILDE*HVQRVMK-NH2; also: K3* and E7* marked (linkage not given here)
B8: SEQ ID NO: 477 (peptide)
peptide: W[NMeA]QKILDEH[Chg]EAVWK
modifications: lactam 11-15, 4-8 (inferred); not fully specified (N-terminus); printed as H23C11C(O)-NH-W-NMeA-QK*ILDE*H-Chg-E*AVWK*
B9: SEQ ID NO: 489 (peptide)
peptide: PQKILDEH[Chg]QRVMK-NH2
modifications: lactam 3-7; not fully specified (N-terminus); printed as H23C11C(O)-PQK*ILDE*H-Chg-QRVMK-NH2

These binders were tested against T1, β-catenin (assay: competitive FP).
Excerpt: Fluorescence polarization (FP) is another method used to analyze protein-ligand interactions. This methodology measures the change in fluorescence light emitted by a labelled compound free vs. conjugated to another compound in solution. Upon binding of the fluorescent molecule to a complex, polarization increases because of limited rotation of the fluorescent tracer. Competitive FP is often utilized in drug screens as it is formatted for high throughput screens in a plate format. This immunoassay is performed by introducing a non-conjugated drug to compete for binding to the labelled competitor-ligand complex, leading to a reduction in polarization. […] Exemplary methodology is described in Example 13. Data were analyzed and plotted in Microsoft Excel (Microsoft, Redmond, WA).
Varying concentrations of β-catenin inhibitor candidate (SEQ ID NO: 404) were then added in a series of serial dilutions from 10 nM to 30 uM of inhibitor in different wells of the plate. The fluorescence polarization was read by Infinite M1000 (Tecan, Baldwin Park CA) at excitation wavelength of 470 nm and measured at emission wavelength of 520 nm. […] The experiments were performed three times and data were analyzed and plotted in Microsoft Excel (Microsoft, Redmond, WA).

| Binder | Kd |
| --- | --- |
| B1 | ≤ 0.4 µM |
| H-MWFLISFWA-OH [SEQ ID NO: 7] | > 10 µM and ≤ 30 µM |
| Ac-MWFLIAFWG-OH [SEQ ID NO: 274] | ≤ 0.4 µM |
| KWFLICAWD (not fully specified; cyclo-H2N-K(GABA*)WFLICAWD*-COOH) [SEQ ID NO: 247] | ≤ 0.4 µM |
| H-MWFLASFWG-OH [SEQ ID NO: 11] | > 0.4 µM and ≤ 1 µM |
| H-MWALISFWG-OH [SEQ ID NO: 13] | > 0.4 µM and ≤ 1 µM |
| KWFLICAWD (not fully specified; cyclo-H2N-K(Ahx*)WFLICAWD*-COOH) [SEQ ID NO: 249] | > 0.4 µM and ≤ 1 µM |
| B2 | ≤ 0.4 µM |
| B3 | > 0.4 µM and ≤ 1 µM |
| B4 | ≤ 0.4 µM |
| B5 | > 10 µM and ≤ 30 µM |
| Ac-WILIAFWG-OH [SEQ ID NO: 263] | > 0.4 µM and ≤ 1 µM |

The binders below were run against T1, β-catenin (assay: cell-based or functional assay).

| Binder | Wnt Reporter EC50 |
| --- | --- |
| H-MSRMWFLISFWTG-OH [SEQ ID NO: 44] | > 15 µM and ≤ 22.5 µM |
| Palmitoyl-PQKILDEH[Chg]QRVMK-NH2 (bridge 3-7; also: K3* and E7* marked (linkage not given here)) [SEQ ID NO: 490] | ≤ 7.5 µM |
| B6 | ≤ 7.5 µM |
| Ac-PQKILDEHVQRVMK-NH2 (bridge 3-7; also: K3* and E7* marked (linkage not given here)) [SEQ ID NO: 485] | > 30 µM |
| H-MWFLISFWRG-OH [SEQ ID NO: 49] | ≤ 7.5 µM |
| Palmitoyl-PQKILDEHVQRVMK-NH2 (bridge 3-7; also: K3* and E7* marked (linkage not given here)) [SEQ ID NO: 487] | ≤ 7.5 µM |
| B7 | > 30 µM |
| B8 | ≤ 7.5 µM |
| Ac-PQKILDEH[Chg]QRVMK-NH2 (lactam 3-7) [SEQ ID NO: 488] | ≤ 7.5 µM |
| Ac-W[NMeA]QKILDEH[Chg]EAVWK (lactam 11-15, 4-8 (inferred)) [SEQ ID NO: 476] | > 7.5 µM and ≤ 15 µM |
| H-MSRMWILISFWG-OH [SEQ ID NO: 51] | > 7.5 µM and ≤ 15 µM |
| H-MSRMWFLICFWG-OH [SEQ ID NO: 46] | ≤ 7.5 µM |
| B9 | > 15 µM and ≤ 22.5 µM |
